Our source for the BDNF activity in TrkBluciferase assay, EC50 [nM], BDNF activity in TrkBluciferase assay, EC50 [% or nM] and relative BDNF activity in TrkB luciferase assay, EC50 [%] values is US20190271021A1.

Experiment [1] concerns the target human TrkB on CHO cells (CHO-K1-hTrkB/pSRE-Luc) (human) (UniProt Q16620). The experiment can be described thus: cell-based or functional assay.
The target is the same in experiment [2]. The experiment is described as follows: cell-based or functional assay. This is another data set of the same source.

Read-outs that look alike come from different tables or passages of the source.

Chain of human TrkB on CHO cells (CHO-K1-hTrkB/pSRE-Luc) (human) (Q16620 32-822): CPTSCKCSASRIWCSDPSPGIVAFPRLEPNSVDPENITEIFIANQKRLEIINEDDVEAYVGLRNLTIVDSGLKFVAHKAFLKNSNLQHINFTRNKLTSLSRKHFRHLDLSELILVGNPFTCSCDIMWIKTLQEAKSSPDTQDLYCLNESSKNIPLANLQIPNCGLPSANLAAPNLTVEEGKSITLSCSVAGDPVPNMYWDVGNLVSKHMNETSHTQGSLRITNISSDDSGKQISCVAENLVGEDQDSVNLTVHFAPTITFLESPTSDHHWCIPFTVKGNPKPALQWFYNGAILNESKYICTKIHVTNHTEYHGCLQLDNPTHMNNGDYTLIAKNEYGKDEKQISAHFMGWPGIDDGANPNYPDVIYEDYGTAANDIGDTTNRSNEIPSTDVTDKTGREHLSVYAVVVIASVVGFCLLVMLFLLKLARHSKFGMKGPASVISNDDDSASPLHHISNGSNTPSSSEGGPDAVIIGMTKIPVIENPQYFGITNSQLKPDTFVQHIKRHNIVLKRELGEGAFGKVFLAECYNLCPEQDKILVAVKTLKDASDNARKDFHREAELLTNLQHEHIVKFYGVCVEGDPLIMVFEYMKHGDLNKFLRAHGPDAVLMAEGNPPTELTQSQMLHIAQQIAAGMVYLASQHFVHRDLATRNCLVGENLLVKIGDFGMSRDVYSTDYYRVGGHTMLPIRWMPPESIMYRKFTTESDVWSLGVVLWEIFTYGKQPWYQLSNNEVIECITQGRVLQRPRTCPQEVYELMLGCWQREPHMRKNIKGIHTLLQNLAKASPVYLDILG

B1: pre-pro-BDNF(-RGD)-myc-His6 (ligand)
chain: APMKEANIRGQGGLAYPGVRTHGTLESVNGPKAGSRGLTSLADTFEHVIEELLDEDQKVRPNEENNKDADLYTSRVMLSSQVPLEPPLLFLLEEYKNYLDAANMSMRVRRHSDPARRGELSVCDSISEWVTAADKKTAVDMSGGTVTVLEKVPVSKGQLKQYFYETKCNPMGYTKEGCRGIDKRHWNSQCRTTQSYVRALTMDSKKRIGWRFIRIDTSCVCTLTIKGSGEQKLISEEDLGSGHHHHHH
With B1, in experiment [1], the BDNF activity in TrkBluciferase assay, EC50 [nM] amounted to 0.36 nM.

B2: pre-pro-BDNF(-RGR)-T7-His6 (ligand)
chain: HSDPARRGELSVCDSISEWVTAADKKTAVDMSGGTVTVLEKVPVSKGQLKQYFYETKCNPMGYTKEGCRGIDKRHWNSQCRTTQSYVRALTMDSKKRIGWRFIRIDTSCVCTLTIKGSGMASMTGGQQMGHHHHHH
With B2, in experiment [2], the BDNF activity in TrkBluciferase assay, EC50 [% or nM] came to 100%; the BDNF activity in TrkBluciferase assay, EC50 [nM] came to 3.4 nM; the relative BDNF activity in TrkB luciferase assay, EC50 [%] was found to be 100%. The same molecule displayed a BDNF activity in TrkBluciferase assay, EC50 [nM] in experiment [1] of 3 nM.
